Measurements from US8703708.

What was measured:
Assay in all cases: cell-based or functional assay
[1] = target: Lrp5 + Fzd4 co-expressed on STF (superTOPFLASH) reporter cells (UniProt Q91VN0)
[2] = target: Lrp6 + Fzd4 co-expressed on STF (superTOPFLASH) reporter cells (UniProt O88572)
[3] = target: Lrp6 + Fzd7 co-expressed on STF (superTOPFLASH) reporter cells (UniProt O88572)
[4] = target: Lrp5 + Fzd7 co-expressed on STF (superTOPFLASH) reporter cells (UniProt Q91VN0)
Chain of Lrp5 + Fzd7 co-expressed on STF (superTOPFLASH) reporter cells (Q91VN0 31-1614 limits assumed, chain 1 of 2, other chains not shown): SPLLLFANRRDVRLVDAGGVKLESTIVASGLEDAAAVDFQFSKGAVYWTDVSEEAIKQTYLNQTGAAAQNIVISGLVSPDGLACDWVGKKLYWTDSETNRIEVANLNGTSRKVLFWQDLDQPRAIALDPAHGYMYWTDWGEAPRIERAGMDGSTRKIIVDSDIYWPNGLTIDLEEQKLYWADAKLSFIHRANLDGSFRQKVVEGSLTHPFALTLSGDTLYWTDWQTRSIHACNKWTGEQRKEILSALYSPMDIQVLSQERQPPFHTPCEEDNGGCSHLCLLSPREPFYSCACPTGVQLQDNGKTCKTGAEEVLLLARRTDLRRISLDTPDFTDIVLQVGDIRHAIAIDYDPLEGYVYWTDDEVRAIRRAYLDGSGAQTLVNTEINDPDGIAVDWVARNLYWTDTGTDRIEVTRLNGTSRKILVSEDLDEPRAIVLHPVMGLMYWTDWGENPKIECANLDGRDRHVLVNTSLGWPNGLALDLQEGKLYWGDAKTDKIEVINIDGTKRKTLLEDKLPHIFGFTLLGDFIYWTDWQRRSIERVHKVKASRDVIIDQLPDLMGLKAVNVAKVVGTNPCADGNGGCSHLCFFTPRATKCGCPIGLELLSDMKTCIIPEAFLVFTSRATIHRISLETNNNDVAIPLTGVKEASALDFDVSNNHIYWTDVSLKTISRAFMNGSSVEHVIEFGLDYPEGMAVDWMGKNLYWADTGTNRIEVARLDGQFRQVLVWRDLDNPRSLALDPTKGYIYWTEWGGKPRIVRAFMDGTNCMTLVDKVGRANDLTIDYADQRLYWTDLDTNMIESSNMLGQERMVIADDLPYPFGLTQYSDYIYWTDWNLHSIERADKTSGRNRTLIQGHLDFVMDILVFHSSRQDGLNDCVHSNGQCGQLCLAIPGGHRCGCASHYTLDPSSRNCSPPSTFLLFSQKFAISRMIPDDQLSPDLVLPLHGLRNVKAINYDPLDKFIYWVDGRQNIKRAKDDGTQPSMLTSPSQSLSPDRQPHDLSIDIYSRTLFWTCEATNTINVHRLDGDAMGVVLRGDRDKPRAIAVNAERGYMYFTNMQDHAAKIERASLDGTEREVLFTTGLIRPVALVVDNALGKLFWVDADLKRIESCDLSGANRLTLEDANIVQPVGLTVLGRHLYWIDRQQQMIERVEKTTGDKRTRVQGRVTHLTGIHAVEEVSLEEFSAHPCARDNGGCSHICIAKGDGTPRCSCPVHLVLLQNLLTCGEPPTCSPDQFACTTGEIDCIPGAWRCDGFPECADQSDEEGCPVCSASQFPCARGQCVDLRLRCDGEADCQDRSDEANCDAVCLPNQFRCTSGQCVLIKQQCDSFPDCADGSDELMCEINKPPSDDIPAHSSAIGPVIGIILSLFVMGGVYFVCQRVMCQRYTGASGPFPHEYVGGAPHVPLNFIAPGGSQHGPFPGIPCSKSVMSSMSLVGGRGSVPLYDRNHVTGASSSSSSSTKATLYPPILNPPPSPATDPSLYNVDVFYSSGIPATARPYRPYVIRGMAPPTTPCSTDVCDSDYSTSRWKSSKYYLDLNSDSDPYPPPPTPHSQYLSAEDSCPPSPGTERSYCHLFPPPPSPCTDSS

Chain of Lrp5 + Fzd4 co-expressed on STF (superTOPFLASH) reporter cells (Q91VN0 31-1614 limits assumed, chain 1 of 2): as the sequence (Q91VN0 31-1614 limits assumed, chain 1 of 2, other chains not shown) above
Chain of Lrp5 + Fzd4 co-expressed on STF (superTOPFLASH) reporter cells (Q61088 37-537 limits assumed, chain 2 of 2, further chain): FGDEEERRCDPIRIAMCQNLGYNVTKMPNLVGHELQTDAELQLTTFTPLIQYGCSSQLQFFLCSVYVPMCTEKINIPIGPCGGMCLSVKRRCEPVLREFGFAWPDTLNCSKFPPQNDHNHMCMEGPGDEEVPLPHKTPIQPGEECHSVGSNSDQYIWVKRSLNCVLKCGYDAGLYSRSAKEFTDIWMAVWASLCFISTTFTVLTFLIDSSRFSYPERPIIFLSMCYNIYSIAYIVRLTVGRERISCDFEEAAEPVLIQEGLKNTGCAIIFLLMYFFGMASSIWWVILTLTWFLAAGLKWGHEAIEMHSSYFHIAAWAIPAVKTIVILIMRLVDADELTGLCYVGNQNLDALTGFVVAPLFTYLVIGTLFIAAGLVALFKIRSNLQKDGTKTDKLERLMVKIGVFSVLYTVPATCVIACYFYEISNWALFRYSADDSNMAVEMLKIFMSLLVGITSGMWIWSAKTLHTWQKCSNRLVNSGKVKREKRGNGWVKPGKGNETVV
Chain of Lrp6 + Fzd7 co-expressed on STF (superTOPFLASH) reporter cells (O88572 20-1613 limits assumed, chain 1 of 2, other chains not shown): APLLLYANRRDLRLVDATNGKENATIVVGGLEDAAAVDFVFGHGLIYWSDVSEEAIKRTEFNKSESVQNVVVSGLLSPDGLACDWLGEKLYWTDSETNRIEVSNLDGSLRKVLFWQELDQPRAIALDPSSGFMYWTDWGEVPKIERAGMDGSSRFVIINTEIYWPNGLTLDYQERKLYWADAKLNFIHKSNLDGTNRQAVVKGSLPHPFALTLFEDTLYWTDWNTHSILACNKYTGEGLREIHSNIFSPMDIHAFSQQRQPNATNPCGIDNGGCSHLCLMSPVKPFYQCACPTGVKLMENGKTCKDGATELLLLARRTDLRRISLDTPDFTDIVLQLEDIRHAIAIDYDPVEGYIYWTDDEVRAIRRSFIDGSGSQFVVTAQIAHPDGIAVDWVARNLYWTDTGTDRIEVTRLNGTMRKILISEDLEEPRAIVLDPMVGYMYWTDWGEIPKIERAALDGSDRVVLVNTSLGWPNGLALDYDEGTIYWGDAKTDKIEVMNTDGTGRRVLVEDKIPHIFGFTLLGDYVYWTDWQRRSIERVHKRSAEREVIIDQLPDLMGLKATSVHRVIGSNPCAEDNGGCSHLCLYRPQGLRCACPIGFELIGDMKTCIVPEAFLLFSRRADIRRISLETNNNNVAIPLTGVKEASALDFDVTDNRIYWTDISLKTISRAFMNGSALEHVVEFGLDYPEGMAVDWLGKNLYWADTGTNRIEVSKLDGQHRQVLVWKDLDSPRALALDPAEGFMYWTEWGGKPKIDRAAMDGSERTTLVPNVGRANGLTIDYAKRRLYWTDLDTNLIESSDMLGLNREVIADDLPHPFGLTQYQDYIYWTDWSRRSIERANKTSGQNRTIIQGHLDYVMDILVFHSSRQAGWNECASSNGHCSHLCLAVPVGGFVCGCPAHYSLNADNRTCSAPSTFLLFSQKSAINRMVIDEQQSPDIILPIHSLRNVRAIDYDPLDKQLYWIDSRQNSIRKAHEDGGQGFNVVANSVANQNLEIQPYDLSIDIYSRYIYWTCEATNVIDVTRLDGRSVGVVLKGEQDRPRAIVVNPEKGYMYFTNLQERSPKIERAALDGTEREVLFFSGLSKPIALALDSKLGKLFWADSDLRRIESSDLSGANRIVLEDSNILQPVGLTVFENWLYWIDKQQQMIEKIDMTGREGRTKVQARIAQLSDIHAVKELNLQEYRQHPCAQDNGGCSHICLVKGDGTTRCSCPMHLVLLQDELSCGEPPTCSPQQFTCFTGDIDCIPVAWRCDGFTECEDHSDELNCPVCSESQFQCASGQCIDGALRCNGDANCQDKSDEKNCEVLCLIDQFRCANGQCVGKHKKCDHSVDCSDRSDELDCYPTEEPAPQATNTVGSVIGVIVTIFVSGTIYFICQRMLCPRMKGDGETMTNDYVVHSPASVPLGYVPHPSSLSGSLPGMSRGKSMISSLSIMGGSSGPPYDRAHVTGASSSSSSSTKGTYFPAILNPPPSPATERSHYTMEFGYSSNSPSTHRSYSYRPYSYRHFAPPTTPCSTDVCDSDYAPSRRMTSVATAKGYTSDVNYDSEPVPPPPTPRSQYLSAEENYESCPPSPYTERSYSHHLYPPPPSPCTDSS
Chain of Lrp6 + Fzd4 co-expressed on STF (superTOPFLASH) reporter cells (O88572 20-1613 limits assumed, chain 1 of 2): as the sequence (O88572 20-1613 limits assumed, chain 1 of 2, other chains not shown) above
Chain of Lrp6 + Fzd4 co-expressed on STF (superTOPFLASH) reporter cells (Q61088 37-537 limits assumed, chain 2 of 2, further chain): as the sequence (Q61088 37-537 limits assumed, chain 2 of 2, further chain) above

## Wnt7b (ORF cloned from C57BL6 kidney cDNA, expressed by 293 cells or bone marrow macrophages) (from UniProt P28047 25-349) (ligand)
[1]
  Firefly Luciferase, absolute light units, STF reporter cells co-cultured with 293-Wnt7b (293-control: 6430) (absolute light units): 26900
[2]
  Firefly Luciferase, absolute light units, STF reporter cells co-cultured with 293-Wnt7b (293-control: 573) (absolute light units): 10100
[3]
  Firefly Luciferase, absolute light units, STF reporter cells co-cultured with 293-Wnt7b (293-control: 464) (absolute light units): 11500
[4]
  Firefly Luciferase, absolute light units, STF reporter cells co-cultured with 293-Wnt7b (293-control: 16172) (absolute light units): 51600
